Test results reported in patent US20050054822A1 (published 2005).

Target: T1, human MARCO (macrophage receptor with a collagenous structure) (human, UniProt Q9UEW3 1-520)
T1 construct: also called HIN-2 receptor
T1 sequence: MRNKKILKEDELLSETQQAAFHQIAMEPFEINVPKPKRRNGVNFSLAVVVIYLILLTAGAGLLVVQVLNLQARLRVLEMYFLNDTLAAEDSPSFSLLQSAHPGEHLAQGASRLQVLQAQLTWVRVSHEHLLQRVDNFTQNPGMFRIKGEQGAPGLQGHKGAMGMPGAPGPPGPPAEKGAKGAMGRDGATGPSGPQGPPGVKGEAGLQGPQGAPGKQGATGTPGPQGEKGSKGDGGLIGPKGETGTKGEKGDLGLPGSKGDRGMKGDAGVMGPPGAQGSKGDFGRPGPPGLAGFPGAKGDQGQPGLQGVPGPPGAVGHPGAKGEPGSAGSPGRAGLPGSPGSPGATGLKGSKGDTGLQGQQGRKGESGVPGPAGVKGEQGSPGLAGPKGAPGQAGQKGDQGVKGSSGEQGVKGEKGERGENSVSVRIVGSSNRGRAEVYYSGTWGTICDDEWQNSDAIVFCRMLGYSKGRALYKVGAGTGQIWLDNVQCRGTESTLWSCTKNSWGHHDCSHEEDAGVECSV
Assay: staining of retrovirally transduced U937 cells with FLAG-HIN-2
Text: cDNA for both MARCO and SP-C were subcloned into the MSCV-IRES retroviral vector, which contains an IRES element followed by the gene encoding green fluorescent protein (GFP). Briefly, for MARCO, full length cDNA fragment encoding MARCO was amplified by PCR from the single MARCO expression cell clone cDNA with two primers from the human lung retroviral cDNA library (Strategene). The amplified cDNA fragment was digested with Sal I and Not I and cloned into the Xho I and Not I site of MSCV-GFP plasmid and PRK plasmids to make MSCV-MARCO and PRK-MARCO. SP-C cDNA was similarly prepared. Viruses were produced and used to infect U937 cells, and the infected cells were stained with FLAG-HIN-2. The FLAG-HIN-2 specifically stained the U937 cell line transduced with retroviruses encoding the MARCO, but no staining was detected on uninfected, MSCV-empty vector infected, or SP-C infected cells (data not shown).

B1: FLAG-HIN-2 (mature human HIN-2 with a carboxy-terminal Flag tag, secreted from 293 cells) (ligand)
chain: FLINKVPLPVDKLAPLPLDNILPFMDPLKLLLKTLGISVEHLVEGLRKCVNELGPEASEAVKKLLEALSHLV
notes: also called HIN-2-FLAG; UGRP1; not shown: C-terminal Flag tag from the PRK-C-FLAG vector; The tagged mature protein is stated to be 86 amino acids, so 14 residues
binding result: binds
